For data set [1], the target named is T1, BnaA.bZIP1-His (Brassica napus, UniProt A0A078IFD5 1-139).
T1 sequence: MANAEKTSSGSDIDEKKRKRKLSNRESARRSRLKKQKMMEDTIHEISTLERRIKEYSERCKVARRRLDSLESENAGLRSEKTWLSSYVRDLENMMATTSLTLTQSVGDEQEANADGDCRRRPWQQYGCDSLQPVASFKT
Put plainly: EMSA; EMSA: 10 ul with 2 ul 5x EMSA/Gel-Shift Binding Buffer (Beyotime), 30 nM Cy5 probe, 30 min at 25 C; 6% native PAGE, 0.5x TBE pH 8.3, 4 C. To be noted: protein: recombinant, tags: His, pET-32a fusion (N-terminal vector tag), blunt. On the technique in general: In EMSA bound probe runs differently from free probe, usually more slowly.

For data set [2], the target named is T1, BnaA.bZIP1-His. In words: competition; unlabeled probe at 200x, 400x, 800x reduces shift of Cy5-p59; EMSA: 10 ul with 2 ul 5x EMSA/Gel-Shift Binding Buffer (Beyotime), 30 nM Cy5 probe, 30 min at 25 C; 6% native PAGE, 0.5x TBE pH 8.3, 4 C. To be noted: protein: recombinant; tags: His; pET-32a fusion (N-terminal vector tag); blunt.

Where a chain is given by its changes, count along the chain named.

B1: p59 (dsDNA)
DNA 1: AACGAAAGCCACCTCACGTCGTGCTATTTTCGGTGTAACCTTAACGGTGGATCTTTAAA
DNA 2: TTTAAAGATCCACCGTTAAGGTTACACCGAAAATAGCACGACGTGAGGTGGCTTTCGTT
With B1, the binding result in data set [1] (label: Cy5 (p59-CY5-F strand)) was “binds”.

B2: mp59 (dsDNA)
DNA 1: B1 DNA 1 with A16T, C17A, G18T, T19G, C20A
DNA 2: B1 DNA 2 with G40T, A41C, C42A, G43T, T44A
On to B2, for which, in data set [1] (label: Cy5 (mp59-CY5-F strand)), the binding result is recorded as “no binding”.

B3: p59 unlabeled competitor (dsDNA)
DNA 1: B1 DNA 1
DNA 2: B1 DNA 2
On to B3, for which the binding result in data set [2] is “binds”.

These data come from article PMC5732959, “BnaA.bZIP1 Negatively Regulates a Novel Small Peptide Gene, BnaC.SP6, Involved in Pollen Activity”.
